Blank lines part the entries; values can stand above or below the binder they belong to.
How the values were obtained:
Assay in all cases: radioligand displacement, compound at 10 µM
Settings in all cases: remark: other sources report otherwise
V1a (h) (human), P37288 = target: V1a (h) (human), P37288
[1] = target: 5-HT2B (h) (human), P41595
[2] = target: mu (MOP) (h) (human), P35372
CB2 (h) (human), P34972 = target: CB2 (h) (human), P34972
AR (h) (human), P10275 = target: T1, AR (h) (human), P10275
T1 chain: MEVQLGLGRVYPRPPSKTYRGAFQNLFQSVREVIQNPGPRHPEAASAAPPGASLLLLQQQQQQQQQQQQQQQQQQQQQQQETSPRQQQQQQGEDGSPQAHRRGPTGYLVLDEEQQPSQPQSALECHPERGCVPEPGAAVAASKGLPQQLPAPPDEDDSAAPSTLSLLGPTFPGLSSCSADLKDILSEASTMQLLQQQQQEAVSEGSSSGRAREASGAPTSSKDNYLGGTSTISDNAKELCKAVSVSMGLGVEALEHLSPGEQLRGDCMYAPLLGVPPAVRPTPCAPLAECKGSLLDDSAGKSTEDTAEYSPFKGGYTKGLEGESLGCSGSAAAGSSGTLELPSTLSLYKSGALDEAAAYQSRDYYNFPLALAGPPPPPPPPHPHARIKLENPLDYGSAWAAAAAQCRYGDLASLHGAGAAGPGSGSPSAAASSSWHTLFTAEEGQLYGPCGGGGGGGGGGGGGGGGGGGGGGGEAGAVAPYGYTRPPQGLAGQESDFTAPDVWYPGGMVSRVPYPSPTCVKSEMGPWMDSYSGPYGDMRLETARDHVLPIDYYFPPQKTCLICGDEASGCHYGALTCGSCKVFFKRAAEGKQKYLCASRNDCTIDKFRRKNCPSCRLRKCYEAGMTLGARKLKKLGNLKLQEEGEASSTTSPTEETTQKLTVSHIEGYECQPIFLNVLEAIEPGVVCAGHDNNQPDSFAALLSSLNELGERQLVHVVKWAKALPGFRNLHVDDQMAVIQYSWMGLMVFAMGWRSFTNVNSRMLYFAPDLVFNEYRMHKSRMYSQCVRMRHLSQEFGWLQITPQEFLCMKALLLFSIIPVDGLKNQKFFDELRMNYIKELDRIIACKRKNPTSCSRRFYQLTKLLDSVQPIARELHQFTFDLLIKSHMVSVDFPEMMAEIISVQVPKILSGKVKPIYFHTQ

[3] = target: T2, CCK1 (CCKA) (h) (human), P32238
T2 chain: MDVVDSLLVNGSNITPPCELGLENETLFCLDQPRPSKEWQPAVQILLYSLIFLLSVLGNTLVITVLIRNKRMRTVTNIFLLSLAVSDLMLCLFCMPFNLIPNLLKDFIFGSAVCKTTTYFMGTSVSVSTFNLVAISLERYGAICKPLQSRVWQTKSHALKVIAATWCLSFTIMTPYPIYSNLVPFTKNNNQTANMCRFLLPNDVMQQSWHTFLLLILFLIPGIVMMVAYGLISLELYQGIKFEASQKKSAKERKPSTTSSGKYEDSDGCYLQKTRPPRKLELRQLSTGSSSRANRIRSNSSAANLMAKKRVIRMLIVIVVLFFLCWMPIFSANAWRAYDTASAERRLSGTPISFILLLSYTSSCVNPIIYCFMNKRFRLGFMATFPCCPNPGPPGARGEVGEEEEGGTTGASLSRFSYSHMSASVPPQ

[4] = target: T3, alpha 2A (h) (human), P08913
T3 chain: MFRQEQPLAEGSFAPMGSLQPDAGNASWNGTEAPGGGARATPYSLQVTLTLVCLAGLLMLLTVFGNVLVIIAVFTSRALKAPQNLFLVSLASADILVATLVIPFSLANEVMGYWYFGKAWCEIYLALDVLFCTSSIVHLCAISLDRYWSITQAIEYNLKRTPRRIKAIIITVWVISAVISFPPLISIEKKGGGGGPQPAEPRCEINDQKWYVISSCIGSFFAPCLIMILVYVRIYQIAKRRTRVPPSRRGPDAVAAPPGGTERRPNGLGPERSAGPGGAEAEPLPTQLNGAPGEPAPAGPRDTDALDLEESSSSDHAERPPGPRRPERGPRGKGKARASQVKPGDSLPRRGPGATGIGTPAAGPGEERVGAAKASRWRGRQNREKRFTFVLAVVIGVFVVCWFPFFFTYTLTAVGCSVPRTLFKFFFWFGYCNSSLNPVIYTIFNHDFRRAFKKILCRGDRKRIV

[5] = target: T4, dopamine transporter (h) (human), Q01959
T4 chain: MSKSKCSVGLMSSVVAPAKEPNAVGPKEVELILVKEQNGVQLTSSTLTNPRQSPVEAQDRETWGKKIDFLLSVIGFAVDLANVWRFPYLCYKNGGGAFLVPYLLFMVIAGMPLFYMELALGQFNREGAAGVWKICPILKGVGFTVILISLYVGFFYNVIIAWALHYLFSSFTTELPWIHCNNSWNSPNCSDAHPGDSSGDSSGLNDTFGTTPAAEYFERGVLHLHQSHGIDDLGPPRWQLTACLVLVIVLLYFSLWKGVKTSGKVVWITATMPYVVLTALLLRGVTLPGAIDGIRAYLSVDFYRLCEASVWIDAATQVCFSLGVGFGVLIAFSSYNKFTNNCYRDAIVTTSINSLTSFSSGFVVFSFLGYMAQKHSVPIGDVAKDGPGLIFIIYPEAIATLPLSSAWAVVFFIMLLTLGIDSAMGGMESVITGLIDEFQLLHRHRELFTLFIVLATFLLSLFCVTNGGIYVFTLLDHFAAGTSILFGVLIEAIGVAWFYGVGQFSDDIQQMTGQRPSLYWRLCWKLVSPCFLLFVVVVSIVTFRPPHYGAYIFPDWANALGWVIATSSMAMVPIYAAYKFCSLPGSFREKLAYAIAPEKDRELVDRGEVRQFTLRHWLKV

Sequence of 5-HT2B (h) (human), P41595 (P41595 whole entry): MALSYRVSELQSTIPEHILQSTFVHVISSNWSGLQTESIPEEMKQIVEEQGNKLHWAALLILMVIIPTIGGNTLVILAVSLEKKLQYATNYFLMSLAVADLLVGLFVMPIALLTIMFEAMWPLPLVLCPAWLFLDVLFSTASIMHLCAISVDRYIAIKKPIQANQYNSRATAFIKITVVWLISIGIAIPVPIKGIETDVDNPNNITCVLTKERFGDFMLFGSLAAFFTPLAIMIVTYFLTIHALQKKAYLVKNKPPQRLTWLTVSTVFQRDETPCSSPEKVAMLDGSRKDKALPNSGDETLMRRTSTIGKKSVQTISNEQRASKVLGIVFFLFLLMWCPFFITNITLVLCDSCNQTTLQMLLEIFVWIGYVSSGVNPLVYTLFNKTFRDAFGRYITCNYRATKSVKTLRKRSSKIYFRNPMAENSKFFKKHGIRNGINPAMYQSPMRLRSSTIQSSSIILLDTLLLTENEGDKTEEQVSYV
Sequence of mu (MOP) (h) (human), P35372 (P35372 whole entry): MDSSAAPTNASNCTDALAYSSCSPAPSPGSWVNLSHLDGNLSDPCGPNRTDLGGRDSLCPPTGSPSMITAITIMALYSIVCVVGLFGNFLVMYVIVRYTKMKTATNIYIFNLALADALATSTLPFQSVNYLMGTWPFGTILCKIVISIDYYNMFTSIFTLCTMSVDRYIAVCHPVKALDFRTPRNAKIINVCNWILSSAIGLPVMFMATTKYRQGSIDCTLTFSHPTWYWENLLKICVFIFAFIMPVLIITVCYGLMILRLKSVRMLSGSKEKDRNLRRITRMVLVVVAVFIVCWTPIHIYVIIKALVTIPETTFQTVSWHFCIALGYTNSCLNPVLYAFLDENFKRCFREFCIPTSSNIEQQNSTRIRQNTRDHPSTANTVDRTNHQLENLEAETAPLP
Sequence of CB2 (h) (human), P34972 (P34972 whole entry): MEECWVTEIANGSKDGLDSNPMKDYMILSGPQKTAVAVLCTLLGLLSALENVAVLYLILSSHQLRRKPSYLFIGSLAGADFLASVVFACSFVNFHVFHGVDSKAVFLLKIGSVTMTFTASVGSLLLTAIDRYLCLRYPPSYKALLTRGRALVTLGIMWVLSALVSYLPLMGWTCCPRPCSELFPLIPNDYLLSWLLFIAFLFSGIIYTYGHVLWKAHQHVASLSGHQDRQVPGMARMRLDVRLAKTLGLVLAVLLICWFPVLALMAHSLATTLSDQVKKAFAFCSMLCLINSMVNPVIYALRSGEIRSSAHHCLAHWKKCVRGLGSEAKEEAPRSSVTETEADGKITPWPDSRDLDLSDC

% Inhibition of Specific Binding (V1a (h) (human), P37288): 16%
% Inhibition of Specific Binding [1]: 2%
% Inhibition of Specific Binding [2]: 2%
% Inhibition of Specific Binding (CB2 (h) (human), P34972): 2%
% Inhibition of Specific Binding (AR (h) (human), P10275): 3%
% Inhibition of Specific Binding [3]: 24%
% Inhibition of Specific Binding [4]: -9%
% Inhibition of Specific Binding [5]: 12%
B1: Hex-[Cys(tMeBn(DOTA-PP))-Pro-Pro-Thr-Gln-Phe-Cys]-Asp-NH2 (3BP-3407) (peptide)
peptide: CPPTQFCD
modifications: here or on the partner: N-terminal hexanoyl (Hex); Cys1 and Cys7 cyclised through tMeBn carrying DOTA-PP; C-terminal amide

% Inhibition of Specific Binding (V1a (h) (human), P37288): 1%
% Inhibition of Specific Binding [1]: 3%
% Inhibition of Specific Binding [2]: -10%
% Inhibition of Specific Binding (CB2 (h) (human), P34972): -5%
% Inhibition of Specific Binding (AR (h) (human), P10275): -5%
% Inhibition of Specific Binding [3]: 16%
% Inhibition of Specific Binding [4]: 2%
% Inhibition of Specific Binding [5]: 7%
B2: Hex-[Cys(tMeBn(DOTA-AET))-Pro-Pro-Thr-Gln-Phe-Cys]-OH (3BP-3554) (peptide)
peptide: CPPTQFC
modifications: here or on the partner: N-terminal hexanoyl (Hex); Cys1 and Cys7 cyclised through tMeBn carrying DOTA-AET; free C-terminal acid (-OH)
